Data published in patent US20220002363A1, “COMPOSITIONS AND METHODS FOR TREATING PULMONARY DISEASE” (United States Government As Represented By The Department …, priority 2020, published 2022).

Tests used:
recombinant human Fas = target: T1, recombinant human Fas (Homo sapiens, UniProt P25445); test: Competition assay: binding of biotinylated WT sFasL to plate-coated recombinant human Fas; conditions: biotinylated WT-sFasL 70 ng/mL, Fas coated at 250 ng/mL, serial 3-fold dilutions
T1 construct: recombinant human soluble Fas receptors (PeproTech, Rocky Hill, N.J.); purchased PeproTech
T1 sequence (P25445 26-173 limits assumed): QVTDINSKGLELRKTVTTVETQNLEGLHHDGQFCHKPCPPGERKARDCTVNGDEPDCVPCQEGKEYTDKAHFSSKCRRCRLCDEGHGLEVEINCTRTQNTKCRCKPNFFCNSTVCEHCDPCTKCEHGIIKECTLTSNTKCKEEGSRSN
Protocol: The mixtures were incubated for 2 hours in 96-well plates pre-coated with recombinant hsFas (250 ng/ml). After washing unbound material, biotin was detected using HRP conjugated Streptavidin. […] The sFasL bound to Fas was detected using polyclonal anti-human FasL antibodies. […] Different molar ratios of the Fas-activating antibody CH-11 and mut-sFasL were added, and caspase 3/7 activity measured after 5 hours. […] Data represent the results from three separate experiments, each done in duplicate, and were analyzed by 2-way ANOVA with Sidak's post hoc analysis. […] Each dot represents individual data; lines represent means±SD. *=P<0.05; **=P<0.01, ***P<0.001.
Antibodies and Reagents. […] FLAG tagged mut-sFasL was detected using HRP anti-FLAG monoclonal antibody (Sigma-Aldrich, Cat #A85920). […]
WT-sFasL inhibition occurs prior to receptor binding. […] Recombinant human Fas at 250 ng/mL were coated and the binding of a fixed concentration of biotinylated WT-sFasL (70 ng/mL) were measured in the presence of serial 3-fold dilutions of either WT-sFasL or mut-sFasL. […] Serial dilutions of either WT-sFasL or mut-sFasL were incubated in wells coated with recombinant human Fas, 5 μg/mL, and after washing, detected sFasL bound to Fas using polyclonal anti-FasL antibodies. […]

Jurkat cells = test: Caspase 3/7 activity in Jurkat cells (bioactivity of sFasL proteins); format: cell-based, human
Protocol: Jurkat cells were incubated for 5 hours with wild type (WT) sFasL or a sFasL mutant (mut sFasL) in which 8 charged amino acids were changed to alanine. Caspase 3/7 activity was measured after incubation with the caspase 3/7 substrate at room temperature for 30 minutes. Data is shown as arbitrary luminescence units. […] Each dot represents individual data. Data analyzed by 2-way ANOVA with Sidak post-hoc analysis. ** p<0.01, *** p<0.001 compared to the respective concentration of mut-sFasL.
Methods. Cells and cell culture. To test Fas responses in vitro, the highly-Fas sensitive cell line, Jurak, was used. Jurak cells are human T lymphocyte cells first isolated from the peripheral blood of a child with acute cell leukemia (Gillis S and Watson J. J Exp Med. 1980; 152(6):1709-19). Jurak cells are exquisitely sensitive to Fas ligation and are commonly used as a model cell in studies involving the Fas/FasL system; here they are used as such, rather than as a model of T-cell responses. Jurak cells (human leukemic T lymphocytes) were purchased from ATCC (Clone TIB-152) and grown at 37° C. and 5% CO2 in RPMI-1640 medium supplemented with 10% heat-inactivated fetal bovine serum. Cells were authenticated using short tandem repeat analysis. Mycoplasma status was weakly positive by PCR (Venor GeM Mycoplasma Detection Kit, Sigma-Aldrich, Cat #MP0025). The Jurak data was confirmed in primary human lung epithelial cells and the murine alveolar epithelial cell line LA4, which are described herein.
Measurements of apoptotic cascade activation. Apoptotic cascade activation was assessed by determining caspase 3/7 activity and Annexin V externalization. Caspase-3/7 activity was measured using a commercial substrate (Caspase-Glo 3/7 Assay, Promega, Madison, Wis., Cat #G8090) following manufacturer's instructions. Annexin V was measured with a luminescent commercial assay that allows for measurement of annexin V externalization in adherent cells (RealTime-Glo Annexin V assay, Promega, Madison, Wis., Cat #JA1011). Luminescence was measured with a Synergy H4 Microplate Reader (BioTek, Winooski, Vt.).
Results. Mutations of the charged amino acids in the stalk region of sFasL influence its biological activity in vitro. To test whether the structure of the stalk region of sFasL influences its biological activity, a mutant sFasL molecule (mut-sFasL) was cloned in which 8 charged amino acids in the 26 amino acid stalk region were changed to the non-charged amino acid alanine (FIG. 7). DNA sequencing data for the FasL constructs was also carried out: DNA sequence of wild type sFasL construct and eight different clones. The mutant sFasL clone used in the study is clone 1. […]

B1: mut-sFasL: mutant sFasL molecule in which 8 charged amino acids in the 26 amino acid stalk region were changed to alanine (protein)
chain: QLFALQAALAALAASTSQMATASSLAKQIGHPSPPPEKKELRKVAHLTGKSNSRSMPLEWEDTYGIVLLSGVKYKKGGLVINETGLYFVYSKVYFRGQSCNNLPLSHKVYMRNSKYPQDLVMMEGKMMSYCTTGQMWARSSYLGAVFNLTSADHLYVNVSELSLVNFEESQTFFGLYKL
Recombinant human Fas
  effect of increasing competitor concentration on binding of biotinylated WT-sFasL to Fas: little effect on binding of biotinylated WT-sFasL, except at very high doses
Jurkat cells; 810 ng/mL
  bioactivity (caspase 3/7) at the highest concentration tested: retained some bioactivity
Jurkat cells; 5 hours incubation, compared to WT-sFasL
  caspase 3/7 activity: significantly reduced caspase 3/7 activity compared to WT-sFasL
Jurkat cells; caspase 3/7
  activity relative to the wild-type sFasL: approximately two orders of magnitude less than the wild-type sFasL
Jurkat cells; highest dose of 2430 ng/mL (corresponds to 1:81 WT:mut molar ratio)
  intrinsic caspase-3/7 activation: leads to intrinsic caspase-3/7 activation
